In patent publication US20150147342A1:
pKd: −log10 of the molar value. Each block holds one substance with its values, some of them ahead of it.

Key:
hAng-1-WT (human) [1] = target: hAng-1-WT (human) (UniProt Q15389); assay: SPR, 1 uM blocker + 10 nM hAng-1-WT over hTie-2-mFc surface (competitor), 25 C
hAng-1-WT (human) [2] = target: hAng-1-WT (human) (UniProt Q15389); assay: SPR, 1 uM blocker + 10 nM hAng-1-WT over hTie-2-mFc surface (competitor), 25 C; RU of Ang-1 bound to Tie-2
[3] = target: Monomeric fibrinogen-like domain of human Ang2 (hAng-2FD) (human) (UniProt O15123); assay: SPR, antibody captured on anti-human IgG, 37 C, steady-state
[4] = target: Dimeric fibrinogen-like domain of monkey (Macca fascicularis) Ang-2 conjugated to human IgG1 (monkey (Macca fascicularis)); assay: SPR, antibody captured on anti-human kappa, 25 C
[5] = target: Dimeric fibrinogen-like domain of mouse (Mus musculus) Ang-2 conjugated to human IgG1 (mouse (Mus musculus)); assay: SPR, antibody captured on anti-human kappa, 25 C
[6] = target: Dimeric Human Ang-2FD-mFc (human) (UniProt O15123); assay: SPR, antibody captured on anti-human kappa, 25 C
[7] = target: Dimeric fibrinogen-like domain of monkey (Macca fascicularis) Ang-2 conjugated to human IgG1 (monkey (Macca fascicularis)); assay: SPR, antibody captured on anti-human kappa, 37 C
[8] = target: Dimeric fibrinogen-like domain of mouse (Mus musculus) Ang-2 conjugated to human IgG1 (mouse (Mus musculus)); assay: SPR, antibody captured on anti-human kappa, 37 C
[9] = target: Dimeric Human Ang-2FD-mFc (human) (UniProt O15123); assay: SPR, antibody captured on anti-human kappa, 37 C
[10] = target: Full-length wild-type human Ang-1 (hAng-1-WT) (human) (UniProt Q15389); assay: cell-based or functional assay
[11] = target: Monomeric fibrinogen-like domain of human Ang2 (hAng-2FD) (human) (UniProt O15123); assay: SPR, antibody captured on anti-human IgG, 25 C
[12] = target: Full-length wild-type human Ang-1 (hAng-1-WT) (human) (UniProt Q15389); assay: SPR, antibody captured on anti-human IgG, 25 C
[13] = target: wild-type human Ang-2 (hAng-2-WT) (human) (UniProt O15123); assay: SPR, antibody captured on anti-human IgG, 25 C
[14] = target: Monomeric fibrinogen-like domain of human Ang2 (hAng-2FD) (human) (UniProt O15123); assay: SPR, peptibody captured on anti-human IgG, 25 C, steady-state
[15] = target: Full-length wild-type human Ang-1 (hAng-1-WT) (human) (UniProt Q15389); assay: SPR, peptibody captured on anti-human IgG, 25 C
[16] = target: wild-type human Ang-2 (hAng-2-WT) (human) (UniProt O15123); assay: SPR, peptibody captured on anti-human IgG, 25 C
[17] = target: Monomeric fibrinogen-like domain of human Ang2 (hAng-2FD) (human) (UniProt O15123); assay: SPR, peptibody captured
[18] = target: wild-type human Ang-2 (hAng-2-WT) (human) (UniProt O15123); assay: SPR, peptibody captured
[19] = target: Full-length wild-type human Ang-1 (hAng-1-WT) (human) (UniProt Q15389); assay: SPR, peptibody captured on anti-human IgG, 37 C
[20] = target: wild-type human Ang-2 (hAng-2-WT) (human) (UniProt O15123); assay: SPR, peptibody captured on anti-human IgG, 37 C
[21] = target: Full-length wild-type human Ang-1 (hAng-1-WT) (human) (UniProt Q15389); assay: SPR, peptibody captured on anti-human IgG, 25 C; remark: listed apart in the source
[22] = target: wild-type human Ang-2 (hAng-2-WT) (human) (UniProt O15123); assay: SPR, peptibody captured on anti-human IgG, 25 C; remark: listed apart in the source

Sequence of Dimeric fibrinogen-like domain of monkey (Macca fascicularis) Ang-2 conjugated to human IgG1 (monkey (Macca fascicularis)) (chain, as listed by the source limits assumed): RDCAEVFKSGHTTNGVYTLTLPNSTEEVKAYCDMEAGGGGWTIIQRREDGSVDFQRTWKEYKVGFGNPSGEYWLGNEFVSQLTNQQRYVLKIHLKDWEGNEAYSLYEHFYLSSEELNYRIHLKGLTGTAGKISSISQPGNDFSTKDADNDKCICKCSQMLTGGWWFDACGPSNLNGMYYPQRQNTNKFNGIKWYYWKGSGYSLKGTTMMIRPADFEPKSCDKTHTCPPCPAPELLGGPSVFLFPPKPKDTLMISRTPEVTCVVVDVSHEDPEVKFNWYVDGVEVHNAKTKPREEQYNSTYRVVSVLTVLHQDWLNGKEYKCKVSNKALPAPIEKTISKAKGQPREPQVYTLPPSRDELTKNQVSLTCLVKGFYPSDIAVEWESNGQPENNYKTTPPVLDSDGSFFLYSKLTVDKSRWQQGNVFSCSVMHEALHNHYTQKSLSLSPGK
Sequence of wild-type human Ang-2 (hAng-2-WT) (human) (O15123 19-496 limits assumed): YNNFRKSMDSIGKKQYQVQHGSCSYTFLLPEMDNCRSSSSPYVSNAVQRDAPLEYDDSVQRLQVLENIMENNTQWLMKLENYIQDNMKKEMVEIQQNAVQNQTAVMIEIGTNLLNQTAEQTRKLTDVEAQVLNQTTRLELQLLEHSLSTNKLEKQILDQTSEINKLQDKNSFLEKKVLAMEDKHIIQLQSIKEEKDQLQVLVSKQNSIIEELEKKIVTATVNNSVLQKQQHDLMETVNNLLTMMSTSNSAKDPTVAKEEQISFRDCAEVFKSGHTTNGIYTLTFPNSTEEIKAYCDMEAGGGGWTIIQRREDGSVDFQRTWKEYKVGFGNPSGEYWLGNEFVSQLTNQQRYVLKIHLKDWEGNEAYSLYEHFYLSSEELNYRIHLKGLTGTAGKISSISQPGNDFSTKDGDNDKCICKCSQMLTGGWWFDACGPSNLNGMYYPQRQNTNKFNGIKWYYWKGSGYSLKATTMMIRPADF
Sequence of Monomeric fibrinogen-like domain of human Ang2 (hAng-2FD) (human) (O15123 282-496 limits assumed): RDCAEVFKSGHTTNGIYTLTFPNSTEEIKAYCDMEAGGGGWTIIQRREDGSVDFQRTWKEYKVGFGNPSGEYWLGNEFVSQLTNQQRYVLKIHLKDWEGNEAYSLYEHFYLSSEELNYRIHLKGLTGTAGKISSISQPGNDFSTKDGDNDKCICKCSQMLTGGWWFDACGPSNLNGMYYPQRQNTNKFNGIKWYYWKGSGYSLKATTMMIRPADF
Sequence of Dimeric Human Ang-2FD-mFc (human) (O15123 282-496 limits assumed): as above
Sequence of Full-length wild-type human Ang-1 (hAng-1-WT) (human) (Q15389 20-498 limits assumed): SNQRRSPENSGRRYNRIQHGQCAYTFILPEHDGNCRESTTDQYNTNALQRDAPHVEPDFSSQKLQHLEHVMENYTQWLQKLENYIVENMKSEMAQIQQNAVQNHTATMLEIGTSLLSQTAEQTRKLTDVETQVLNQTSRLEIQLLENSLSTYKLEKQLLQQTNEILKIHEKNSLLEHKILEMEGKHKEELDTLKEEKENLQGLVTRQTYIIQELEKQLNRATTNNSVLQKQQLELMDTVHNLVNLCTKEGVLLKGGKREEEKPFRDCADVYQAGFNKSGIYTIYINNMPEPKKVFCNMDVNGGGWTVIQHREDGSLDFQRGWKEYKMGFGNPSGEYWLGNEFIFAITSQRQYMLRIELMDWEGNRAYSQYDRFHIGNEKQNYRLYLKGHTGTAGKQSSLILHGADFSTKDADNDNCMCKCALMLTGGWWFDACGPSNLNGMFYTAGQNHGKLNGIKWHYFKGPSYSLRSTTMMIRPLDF
Sequence of Dimeric fibrinogen-like domain of mouse (Mus musculus) Ang-2 conjugated to human IgG1 (mouse (Mus musculus)) (chain, as listed by the source limits assumed): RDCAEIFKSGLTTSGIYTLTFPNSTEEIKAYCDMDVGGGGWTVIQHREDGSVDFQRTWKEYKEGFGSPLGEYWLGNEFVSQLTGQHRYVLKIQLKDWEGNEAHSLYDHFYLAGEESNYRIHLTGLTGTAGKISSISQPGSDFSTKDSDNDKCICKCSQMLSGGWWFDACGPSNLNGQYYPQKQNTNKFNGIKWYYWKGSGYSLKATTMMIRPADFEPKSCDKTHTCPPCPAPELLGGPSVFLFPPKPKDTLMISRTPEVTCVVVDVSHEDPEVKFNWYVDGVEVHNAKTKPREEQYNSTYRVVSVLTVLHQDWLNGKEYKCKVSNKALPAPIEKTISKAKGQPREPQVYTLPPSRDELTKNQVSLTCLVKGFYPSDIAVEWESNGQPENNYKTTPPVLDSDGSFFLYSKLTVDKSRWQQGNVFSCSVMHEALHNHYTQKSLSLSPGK
Sequence of hAng-1-WT (human) (Q15389 20-498 limits assumed): as the sequence (Q15389 20-498 limits assumed) above

- Percent of Negative Control Binding (hAng-1-WT (human) [1]): 100%
- RU (average) (hAng-1-WT (human) [2]): 169 RU
Substance: Negative Control (irrelevant peptibody) (Fc fusion)

- pKd [3]: 7.03
- pKd [4]: 10.81
- T1/2 [4]: 5.7 h
- pKd [5]: 10.40
- T1/2 [5]: 4.82 h
- pKd [6]: 10.90
- T1/2 [6]: 4.48 h
- pKd [7]: 10.32
- T1/2 [7]: 1.78 h
- pKd [8]: 10.27
- T1/2 [8]: 1.98 h
- pKd [9]: 11.00
- T1/2 [9]: 3.07 h
- inhibition of Ang-1-induced Tie-2 phosphorylation in EA.hy926 cells (Western blot) [10]: 100 nM
- pKd [11]: 6.90
- T1/2 [11]: 19 s
- koff [11]: 0.0356 s⁻¹
- kon [11]: 284000 M⁻¹ s⁻¹
- pKd [12]: 9.77
- T1/2 [12]: 1.75 h
- koff [12]: 0.000111 s⁻¹
- kon [12]: 660000 M⁻¹ s⁻¹
- pKd [13]: 10.14
- T1/2 [13]: 0.7 h
- koff [13]: 0.000274 s⁻¹
- kon [13]: 3.8e+06 M⁻¹ s⁻¹
Substance: Control IV: human anti-Ang-2 antibody with the variable regions of 3.19.3

- pKd [14]: 7.05
- pKd [15]: 10.08
- T1/2 [15]: 7.67 h
- koff [15]: 2.51e-05 s⁻¹
- kon [15]: 304000 M⁻¹ s⁻¹
- pKd [16]: 9.19
- T1/2 [16]: 3.55 h
- koff [16]: 5.41e-05 s⁻¹
- kon [16]: 83000 M⁻¹ s⁻¹
- pKd [17]: 7.05
- pKd [18]: 10.35
- T1/2 [18]: 5.58 h
- pKd [19]: 9.81
- T1/2 [19]: 4.43 h
- koff [19]: 4.35e-05 s⁻¹
- kon [19]: 281000 M⁻¹ s⁻¹
- pKd [20]: 8.51
- T1/2 [20]: 1.65 h
- koff [20]: 0.000117 s⁻¹
- kon [20]: 37900 M⁻¹ s⁻¹
- inhibition of Ang-1-induced Tie-2 phosphorylation in EA.hy926 cells (Western blot) [10]: 50 nM
- pKd [21]: 10.11
- T1/2 [21]: 5.43 h
- koff [21]: 3.54e-05 s⁻¹
- kon [21]: 453000 M⁻¹ s⁻¹
- pKd [22]: 10.35
- T1/2 [22]: 5.58 h
- koff [22]: 3.45e-05 s⁻¹
- kon [22]: 773000 M⁻¹ s⁻¹
Substance: Control II: peptibody that binds human Ang-2 having the amino acid sequence of 2XCon4(C) (Fc fusion)
